From US20190142860A1, “NUCLEIC ACID BASED TIA-1 INHIBITORS” (Aquinnah Pharmaceuticals, Inc., priority 2015, published 2019) come the findings set out here.

Assay [1] concerns the target Nucleolysin TIA-1 (endogenous mouse TIA1) (mouse) (UniProt P52912). Description: TIA1 IP-MS, WT1 cortex.
Assay [2] shares this target. The assay is described as follows: TIA1 IP-MS, WT3 cortex.
The target is the same in assay [3]. The assay is described as follows: TIA1 IP-MS, tau KO 3 cortex.
For assay [4] the target is unchanged. Description: TIA1 IP-MS, WT2 cortex.
Assay [5] shares this target. Description: TIA1 IP-MS, tau KO 1 cortex.
The target is the same in assay [6]. The assay is described as follows: TIA1 IP-MS, tau KO 2 cortex.

UniProt P52912, sequence (P52912 whole entry): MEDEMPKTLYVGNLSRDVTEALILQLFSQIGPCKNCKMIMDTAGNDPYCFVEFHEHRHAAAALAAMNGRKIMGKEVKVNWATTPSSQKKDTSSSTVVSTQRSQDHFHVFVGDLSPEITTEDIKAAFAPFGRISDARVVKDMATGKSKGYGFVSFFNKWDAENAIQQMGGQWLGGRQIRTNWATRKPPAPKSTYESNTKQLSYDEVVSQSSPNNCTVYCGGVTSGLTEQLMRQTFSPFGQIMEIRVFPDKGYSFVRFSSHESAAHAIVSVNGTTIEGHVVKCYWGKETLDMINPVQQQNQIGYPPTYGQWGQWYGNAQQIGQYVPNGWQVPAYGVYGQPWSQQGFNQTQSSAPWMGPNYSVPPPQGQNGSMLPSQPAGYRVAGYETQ

For the substance “Leucine-rich repeat-containing protein 59 (from UniProt Q922Q8 1-307)”, the total ion current (normalized to TIA1 = 1000) was found to be 0 in assay [1]; 0 in assay [2]; 0 in assay [3]; 408 in assay [4]; 10.6 in assay [5]; 0 in assay [6].

“Malate dehydrogenase, cytoplasmic (from UniProt P14152 2-334)”: the total ion current (normalized to TIA1 = 1000) amounted to 0 in assay [1]; 31.7 in assay [2]; 0 in assay [3]; 189 in assay [4]; 0 in assay [5]; 81.6 in assay [6].

On to “Malate dehydrogenase, mitochondrial (from UniProt P08249 25-338)”, for which the total ion current (normalized to TIA1 = 1000) turned out to be 0 in assay [1]; 131 in assay [2]; 0 in assay [3]; 819 in assay [4]; 0 in assay [5]; 477 in assay [6].

Consider “Microtubule-associated protein 6 (from UniProt Q7TSJ2 1-906)”, for which the total ion current (normalized to TIA1 = 1000) amounted to 0 in assay [1]; 0 in assay [2]; 0 in assay [3]; 116 in assay [4]; 0 in assay [5]; 36.1 in assay [6].

Turning to “Mitochondrial glutamate carrier 1 (from UniProt Q9D6M3 1-323)”, the total ion current (normalized to TIA1 = 1000) came out at 0 in assay [1]; 85 in assay [2]; 0 in assay [3]; 136 in assay [4]; 0 in assay [5]; 12.2 in assay [6].

As for “Mitogen-activated protein kinase 1 (from UniProt P63085 2-358)”, the total ion current (normalized to TIA1 = 1000) was determined as 0 in assay [1]; 0 in assay [2]; 141 in assay [3]; 112 in assay [4]; 0 in assay [5]; 72.4 in assay [6].

With “Myelin-oligodendrocyte glycoprotein (from UniProt Q61885 29-246)”, the total ion current (normalized to TIA1 = 1000) came out at 0 in assay [1]; 607 in assay [2]; 0 in assay [3]; 133 in assay [4]; 0 in assay [5]; 76 in assay [6].

In the case of “NADH dehydrogenase [ubiquinone] flavoprotein 1, mitochondrial (from UniProt Q91YT0 21-464)”, the total ion current (normalized to TIA1 = 1000) was determined as 0 in assay [1]; 0 in assay [2]; 0 in assay [3]; 179 in assay [4]; 0 in assay [5]; 0 in assay [6].

Consider “NADH dehydrogenase [ubiquinone] iron-sulfur protein 2, mitochondrial (from UniProt Q91WD5 34-463)”, for which the total ion current (normalized to TIA1 = 1000) amounted to 0 in assay [1]; 0 in assay [2]; 0 in assay [3]; 137 in assay [4]; 0 in assay [5]; 27 in assay [6].

On to “NADH dehydrogenase [ubiquinone] iron-sulfur protein 3, mitochondrial (from UniProt Q9DCT2 36-263)”, for which the total ion current (normalized to TIA1 = 1000) is 0 in assay [1]; 60.8 in assay [2]; 0 in assay [3]; 366 in assay [4]; 0 in assay [5]; 36.9 in assay [6].

With “Nascent polypeptide-associated complex subunit alpha, muscle-specific form (from UniProt P70670 1-2187)”, the total ion current (normalized to TIA1 = 1000) in assay [1] worked out at 0; in assay [2], 0; in assay [3] it was 474; in assay [4], 98.9; in assay [5], 10.5; in assay [6], 0.

In the case of “Nicotinamide phosphoribosyltransferase (from UniProt Q99KQ4 1-491)”, the total ion current (normalized to TIA1 = 1000) in assay [1] worked out at 0; in assay [2], 0; in assay [3], 1570; in assay [4], 0; in assay [5], 0; in assay [6], 0.

On to “PH and SEC7 domain-containing protein 3 (from UniProt Q2PFD7 1-1037)”, for which the total ion current (normalized to TIA1 = 1000) in assay [1] was determined as 0; in assay [2], 0; in assay [3], 0; in assay [4], 555; in assay [5] it was 0; in assay [6] it was 133.

Regarding “Phosphatidylinositol 5-phosphate 4-kinase type-2 gamma (from UniProt Q91XU3 2-421)”, the total ion current (normalized to TIA1 = 1000) in assay [1] amounted to 0; in assay [2], 0; in assay [3], 0; in assay [4], 36.6; in assay [5] it was 0; in assay [6] it was 0.

As for “Phytanoyl-CoA hydroxylase-interacting protein (from UniProt Q8K0S0 1-330)”, the total ion current (normalized to TIA1 = 1000) was 0 in assay [1]; 0 in assay [2]; 0 in assay [3]; 17.1 in assay [4]; 0 in assay [5]; 54.7 in assay [6].

For “Poly(rC)-binding protein 1 (from UniProt P60335 1-356)”, the total ion current (normalized to TIA1 = 1000) in assay [1] came to 0; in assay [2], 30.2; in assay [3], 0; in assay [4], 19.2; in assay [5], 0; in assay [6], 58.5.

On to “Polyadenylate-binding protein 1 (from UniProt P29341 1-636)”, for which the total ion current (normalized to TIA1 = 1000) in assay [1] worked out at 0; in assay [2], 0; in assay [3], 0; in assay [4], 50.7; in assay [5], 0; in assay [6], 86.4.

Take “Probable ATP-dependent RNA helicase DDX17 (from UniProt Q501J6 1-650)”: the total ion current (normalized to TIA1 = 1000) amounted to 0 in assay [1]; 0 in assay [2]; 0 in assay [3]; 135 in assay [4]; 0 in assay [5]; 34.1 in assay [6].

As for Prohibitin (from UniProt P67778 2-272), the total ion current (normalized to TIA1 = 1000) in assay [1] stood at 0; in assay [2], 37.7; in assay [3], 0; in assay [4], 172; in assay [5], 0; in assay [6] it was 137.

For the substance “Prohibitin-2 (from UniProt O35129 2-299)”, the total ion current (normalized to TIA1 = 1000) came out at 0 in assay [1]; 171 in assay [2]; 0 in assay [3]; 440 in assay [4]; 0 in assay [5]; 292 in assay [6].

Regarding “Proteasome subunit alpha type-4 (from UniProt Q9R1P0 1-261)”, the total ion current (normalized to TIA1 = 1000) in assay [1] amounted to 10.5; in assay [2], 0; in assay [3], 0; in assay [4], 0; in assay [5], 0; in assay [6] it was 0.

As to Protein Golgb1, the total ion current (normalized to TIA1 = 1000) in assay [1] is 0; in assay [2] it was 259; in assay [3], 0; in assay [4] it was 0; in assay [5] it was 0; in assay [6], 0.
